Test results published in US20230212305A1 (published 2023).
Substitutions are numbered along the chain they refer to. One block for each binder: values may come before it.

How the values were obtained:
[1] = molecular target: T1, cynomolgus ABCG2 (Macaca fascicularis) (UniProt Q5MB13 1-654); experiment: FACS binding to 293T.cG2 cells
T1 chain: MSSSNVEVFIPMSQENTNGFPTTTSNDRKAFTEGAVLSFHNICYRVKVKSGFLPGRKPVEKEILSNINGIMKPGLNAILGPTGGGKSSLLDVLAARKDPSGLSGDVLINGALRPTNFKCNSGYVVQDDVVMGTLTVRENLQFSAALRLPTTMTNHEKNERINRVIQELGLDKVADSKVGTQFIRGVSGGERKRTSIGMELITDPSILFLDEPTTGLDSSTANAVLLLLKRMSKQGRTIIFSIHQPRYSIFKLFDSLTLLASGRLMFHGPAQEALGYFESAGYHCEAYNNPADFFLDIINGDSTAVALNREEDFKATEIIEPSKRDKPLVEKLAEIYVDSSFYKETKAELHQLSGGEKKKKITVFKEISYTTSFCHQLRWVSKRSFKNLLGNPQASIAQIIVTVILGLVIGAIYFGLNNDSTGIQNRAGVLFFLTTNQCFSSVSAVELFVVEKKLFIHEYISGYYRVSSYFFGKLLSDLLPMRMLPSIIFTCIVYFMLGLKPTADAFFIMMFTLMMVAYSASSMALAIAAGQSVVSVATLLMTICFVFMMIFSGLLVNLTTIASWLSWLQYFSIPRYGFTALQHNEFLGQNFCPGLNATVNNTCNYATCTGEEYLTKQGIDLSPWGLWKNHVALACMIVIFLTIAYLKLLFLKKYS

human ABCG2 [2] = molecular target: T2, human ABCG2 (UniProt Q9UNQ0 1-655); experiment: FACS binding to 293T.hG2 cells
T2 chain: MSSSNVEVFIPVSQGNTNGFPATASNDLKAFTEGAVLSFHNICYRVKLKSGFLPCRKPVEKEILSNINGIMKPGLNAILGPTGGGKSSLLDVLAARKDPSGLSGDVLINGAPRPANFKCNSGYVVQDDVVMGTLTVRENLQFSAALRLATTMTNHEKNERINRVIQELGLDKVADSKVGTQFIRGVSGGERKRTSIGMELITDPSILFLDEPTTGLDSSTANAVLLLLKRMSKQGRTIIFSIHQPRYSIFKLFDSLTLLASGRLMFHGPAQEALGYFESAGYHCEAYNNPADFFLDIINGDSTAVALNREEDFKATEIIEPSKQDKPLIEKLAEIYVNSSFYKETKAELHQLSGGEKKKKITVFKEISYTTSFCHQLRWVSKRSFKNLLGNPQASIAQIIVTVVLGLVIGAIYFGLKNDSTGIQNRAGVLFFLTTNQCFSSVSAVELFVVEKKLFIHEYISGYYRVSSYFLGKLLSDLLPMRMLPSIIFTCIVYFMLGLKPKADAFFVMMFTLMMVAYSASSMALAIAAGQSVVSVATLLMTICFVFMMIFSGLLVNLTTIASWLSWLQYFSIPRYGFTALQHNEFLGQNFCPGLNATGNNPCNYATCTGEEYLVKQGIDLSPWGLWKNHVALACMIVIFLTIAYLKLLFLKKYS

[3] = molecular target: T1, cynomolgus ABCG2 (Macaca fascicularis); experiment: FACS binding to 293T cells
human ABCG2 [4] = molecular target: T2, human ABCG2; experiment: FACS binding to 293T cells
human ABCG2 [5] = molecular target: T2, human ABCG2; experiment: cell binding
[6] = molecular target: T1, cynomolgus ABCG2 (Macaca fascicularis); experiment: cell binding
human ABCG2 [7] = molecular target: T2, human ABCG2; experiment: FACS binding to 293T cells
[8] = molecular target: T1, cynomolgus ABCG2 (Macaca fascicularis); experiment: FACS binding to 293T cells
human ABCG2 [9] = molecular target: T2, human ABCG2; experiment: FACS cell binding (MFI)

Kd [1]: 73.5 nM
Kd (human ABCG2 [2]): 12.4 nM
B1: G2.757 rat (antibody, V domains shown)
VH: QVTLKESGPGILRPSHTLSLTCSFSGFSLTTYGICVSWIRQPSGKGLEWLANICWEDSKAYNPSLKNRLTISKDTSNNQVFLRIPSVDTADSAIYYCARVFNNYPFPYWGQGTLVTVSS
VL: TQSPPSLSASLGDKVTITCQASQNINKYVAWYQQKPGKAPRLLIRYTSTLESGTPSRFSGSGSWRDYSFSISNVESEDIADYYCLQYVNLWTFGGGTKLELK

Kd [1]: 1370 nM
Kd (human ABCG2 [2]): 31.2 nM
B2: G2_767 (antibody, V domains shown)
VH: QVQLKESGPGLVQPSQTLSLTCTVSGLSLSSNSVSWIRQPPGKGLEWMGVIWNNGGTDYNSAIKSRLSISRDTSKSQVFLKLSSLQTEDTAMYFCARGYSSYIFDYWGQGVMVTVSS
VL: DIQMTQSPPSLSASLGDKVTITCQSSQNINNYIAWYQQKPGEAPRVLIRYTSTLQSGAPSRFSGSGSWRDYSFTISNVESEDIADYYCLQYVNLWTFGGGTKLEIK

Kd [3]: 111 nM
B3: G2.333 rat (antibody, V domains shown)
VH: EIQLQESGPGLVKPSQSLSLTCSVTGYTITSGYDWTWLRKFPGNKMEWMGYISYSGFTNYNPSLRSRISISRDTSKNQFFLQLNSVTTEDTATYYCARTRGYNPFPYWGQGTLVTVSS
VL: DIQMTQSPSLLSASVGDRVSLSCKAGRNVNNYLAWYQQKLGKPPKLLIYNSNSLQTGIPSRFSGSGSGTDFTLTISSLQPEDVATYFCQQYNSWTTFGSGTKLEIK

Kd [3]: 49.8 nM
B4: G2.318 rat (antibody, V domains shown)
VH: B3 VH with I2V, Q3K, Q5L, T36S, L38I, F57W, T99V, P106A
VL: B3 VL with Q3V, S20T, R27Q, V29I, K42E, P43A, S51A

Kd [1]: 107 nM
Kd (human ABCG2 [2]): 17.5 nM
B5: G2.758 rat (antibody, V domains shown)
VH: QGTLKESGPGIVQSSHTLSLTCSFSGFSLSTYGMGVSWIRQPSGKGLEWLASVWWNGDTSNNPSLKSRLTVSKDTS
VL: DIQMTQSPPSLSASLGDKVTITCQASQNIYKYIAWYQQKPGKAPRLLIRYTSTLHFGTPSRFSGSGSGRDYSFSISNVESEDIARYYCQQYVKFPNTFGAGTILELK

Kd (human ABCG2 [4]): 8.4 nM
Kd [3]: 58.4 nM
B6: G2.343 rat (antibody, V domains shown)
VH: SVQLKESGPGLVQPSQTLSLTCTVSGFSLTSNGVSWVRQPPGKGLEWIAAISSGGSTYYNSVLKSRLSISRDTSKSQVFLKMNSLQTEDTAIYFCTRDTYYGYNQIPFVYWGQGTLVTVSS
VL: DVVLAQTPPTLSATIGQSVSISCRSSQSLLHSSGNTYLNWLLQRPGQPPQLLIYLVSRLESRVPNRFSGSGSGTDFTLKISGVEAEDLGVYYCVQSTHAPRTFGGGTKLELK

Kd (human ABCG2 [4]): 11.1 nM
Kd [3]: 29.9 nM
B7: G2.420 rat (antibody, V domains shown)
VH: SVQLMESGPGLVQPSQTLSLTCTVSGFSLNSYNVNWVRQPPGKGLEWIAAISSGGSTYYNSVLKSRLSITRDTSKSQVFLKMNSLQTEDTAMYFCARSGYYSSYMNWGQGVMVTVSS
VL: B6 VL with L4M, A5T, S33T, S61Y, R62G, V94A, P100L, R101N, G105A

EC50 (human ABCG2 [5]): 28.5 nM
EC50 [6]: 87.4 nM
B8: G2.636.hu25 (antibody, V domains shown)
VH: EVQLVESGGGLVQPGGSLRLSCAASGFTFSRFYMAWVRQAPGKGLEWVAHISHGGDTTYYRDSVKGRFTISRDNSKNTLYLQMNSLRAEDTAVYYCTTSAAPWNYVMDGWGQGTLVTVSS
VL: AIQLTQSPSSLSASVGDRVTITCKGSQNINNFLAWYQQKPGKAPKLLIYKTNSLHTGIPSRFSGSGSGTDYTLTISSLQPEDFATYYCYQYNNGYTFGQGTKLEIK

EC50 (human ABCG2 [5]): 23.1 nM
EC50 [6]: 38.8 nM
B9: G2.636.hu27 (antibody, V domains shown)
VH: B8 VH
VL: B8 VL with A1D, I21L

EC50 (human ABCG2 [5]): 20.4 nM
EC50 [6]: 42.6 nM
B10: G2.636.hu47 humanized (antibody, V domains shown)
VH: B8 VH with T114A, L115T
VL: B8 VL with A1D, I21L

EC50 (human ABCG2 [5]): 18.5 nM
EC50 [6]: 65.3 nM
B11: G2.636.hu45 (antibody, V domains shown)
VH: B8 VH with T114A, L115T
VL: B8 VL

Kd (human ABCG2 [7]): 6.2 nM
Kd [8]: 14.8 nM
B12: G2_732 (antibody, V domains shown)
VH: VQLKESGPGLVQPSQTLSLTCTVSGLSLTSTGVSWIRQPPGKGLEWMGVIWSNGGTDYNSAIKSRLSISRDTSKSQVFLKMNSLQTEDTAMYFCARAIAPSYIMDAWGQGASVTVSS
VL: DIQMTQSPPSLSASLGDKVTITCQASQNIHKYIAWYRQKPGKPPRLLIRYTSTLQSGTPSRFSGSGSGRDYSFSISNVESEDIASYYCLQYVNLWTFGGGTKLELK

Kd (human ABCG2 [7]): 35.3 nM
Kd [8]: 93.4 nM
B13: G2_392 (antibody, V domains shown)
VH: B12 VH with K4V, G9D, K42R, K63R, P100A
VL: B12 VL with Q38H

EC50 (human ABCG2 [9]): 180 nM
B14: G2.65 mouse (antibody, V domains shown)
VH: QGQMHQSGAELVKPGASVKLSCKTSGFTFNSGYISWLKQKPRQSLEWIAWIYAGTGISNFNQKFTGKAQLTVDTSSSTAYMQLSSLTSADSAIYFCASGARKTLDFWGQGTSVTVSS
VL: DIQMTQSSSYLSVSVGGRVTITCKASDQINYWLAWYQQKPGNAPRLLISGATSLETGVPSRFSGSGSGKDYTLSITSFQTEDVATYYCQQYWTTPYTFGGGTKVEIK

EC50 (human ABCG2 [9]): 17.1 nM
B15: G2.173 mouse (antibody, V domains shown)
VH: QVQLQQSGADLVRPGASVKLSCTASGFNIKDDYVHWVKQRPEQGLEWIGRIDPANGNTRYAPKFRGKATMTADTSSNTAYLQLSSLTSADTAVYYCSPPLWVGGFAYWGQGTLVTVSS
VL: DVVMTQTPLSLPVSLGDQASISCRSSQSLVHSDVNTYLHWYLQRPGQSPKLLIYKVSNRFSGVPDRFSGSGSGTDFTLKISRVESEDLGIYFCSQTTHVPYTFGGGTKLEIK

Kd [8]: 15 nM
Kd (human ABCG2 [4]): 4.6 nM
Kd [3]: 67.7 nM
B16: G2.631 rat (antibody, V domains shown)
VH: EVKLLESGGGLVQSGRSLKLSCAASGFIFSRFYMAWVRQAPRKGLEWVAYISNGAGSTYYRESVKGRFIISRDNAKSTLYLQMDSLRSEDTATYYCTTVAAPWNYVMDGWGQGASVTVSS
VL: NIQITQSPSLLSASVGDRVTLSCKGSQNINNYLAWYQQKLGEAPKLLIYKTNSLHTGIPSRFSGSGSGTDYTLTISSLHSEDLATYYCYQYNNGYTFGAGTKLELK

Kd (human ABCG2 [4]): 50.1 nM
Kd [3]: 540 nM
B17: G2.629 rat (antibody, V domains shown)
VH: EVQLVESGGGLVQPGRSLKLSCAASGFIFSRFYMAWVRQAPTKGLEWVAYINTGGGTTYYRDSVKGRFTISRDNAKTTLYLQMDSLRSEDTATYYCTTLAAPWNYVMDAWGQGASVTVSS
VL: B16 VL with N1D, I2V, Q3V, I4M, S22T, Y32F, I48T, A99P

Kd [1]: 2.4 nM
Kd (human ABCG2 [2]): 3.4 nM
B18: G2.760 rat (antibody, V domains shown)
VH: EVQLVESGGGLVQPGRSMKLSCAASGFTFSKSDMAWVRQAPTKGLKWVASIRYDGGNTYYRDSVRGRFTISRDNAKSTLYLQMDSLRSEDTATYYCSTAKAAISTPSYYVLDAWGQGASVTVSS
VL: DIGMTQSPTSMSKSVGDRVTMNCKASQNVGSNVDWFQQKTGQSPKLLIYKSSNRYTGVPARFTGSGSGTDFTFTISNMQAEDLAVYYCMQSNSYPPTFGGGTKLELK
